# Experimental data as given in paper PMC4069020, “A 14.7 kDa Protein from Francisella tularensis subsp. novicida (Named FTN_1133), Involved in the Response to Oxidative Stress Induced by Organic Peroxides, Is Not Endowed with Thiol-Dependent Peroxidase Activity” (PLoS ONE, 2014).
# B1: FTN_1133 (14.7 kDa protein from Francisella tularensis subsp. novicida), recombinant His-tagged (natural protein)
# chain: MAISQNVIKILQDIDELDLFSNISDEWSTLLNESDDNIKIKKLYSALVKESIRRETAERLAKDAKSYCDLVQEQAKQRISDLKESLESQITFLTQQIKDLKVESAKNLDYYRNELKKANRSLIDNKS
# notes: also called His-FTN_1133
# Target: the molecule itself
# Test: non-reducing SDS-PAGE
protein,measurement,value
B1,stoichiometry N,2
